# Assay results from patent US8426166B2, “Long-acting polypeptides and methods of producing same” (Prolor Biotech Inc., dated 2013).
# T1: human IFN receptor (human, UniProt P17181)
# T1 sequence 1: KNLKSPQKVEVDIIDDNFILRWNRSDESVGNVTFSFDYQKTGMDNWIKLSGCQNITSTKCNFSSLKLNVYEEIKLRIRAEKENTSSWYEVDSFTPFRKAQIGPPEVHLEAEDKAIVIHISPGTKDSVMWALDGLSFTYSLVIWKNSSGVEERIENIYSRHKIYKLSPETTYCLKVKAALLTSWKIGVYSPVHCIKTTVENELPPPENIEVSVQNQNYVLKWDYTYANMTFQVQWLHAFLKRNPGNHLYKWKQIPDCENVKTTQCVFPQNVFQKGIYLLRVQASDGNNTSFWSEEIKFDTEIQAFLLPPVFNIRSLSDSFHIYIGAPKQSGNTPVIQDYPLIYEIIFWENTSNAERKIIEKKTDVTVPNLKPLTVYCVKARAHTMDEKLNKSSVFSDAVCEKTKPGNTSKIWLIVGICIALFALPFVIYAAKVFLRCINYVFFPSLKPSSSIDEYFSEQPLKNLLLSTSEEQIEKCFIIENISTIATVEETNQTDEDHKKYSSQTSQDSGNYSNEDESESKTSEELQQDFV
# T1 sequence 2: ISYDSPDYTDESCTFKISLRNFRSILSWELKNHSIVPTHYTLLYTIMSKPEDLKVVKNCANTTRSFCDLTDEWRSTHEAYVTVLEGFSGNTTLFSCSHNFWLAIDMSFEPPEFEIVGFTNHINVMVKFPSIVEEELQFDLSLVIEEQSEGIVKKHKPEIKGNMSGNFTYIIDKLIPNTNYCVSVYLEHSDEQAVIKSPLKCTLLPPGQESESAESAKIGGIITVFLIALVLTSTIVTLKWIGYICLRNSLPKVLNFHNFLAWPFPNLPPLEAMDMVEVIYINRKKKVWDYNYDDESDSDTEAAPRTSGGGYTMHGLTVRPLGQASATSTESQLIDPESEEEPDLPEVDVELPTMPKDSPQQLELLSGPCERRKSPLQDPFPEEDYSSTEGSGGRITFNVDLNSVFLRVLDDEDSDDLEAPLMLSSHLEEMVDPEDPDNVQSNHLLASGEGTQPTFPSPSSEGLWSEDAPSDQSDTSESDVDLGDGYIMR
# B1: Intl. Standard (IFN-β reference standard calibrated in International Units, National Institute of Allergy and Infectious Diseases (NIH)) (ligand)
# chain: MSYNLLGFLQRSSNFQCQKLLWQLNGRLEYCLKDRMNFDIPEEIKQLQQFQKEDAALTIYEMLQNIFAIFRQDSSSTGWNETIVENLLANVYHQINHLKTVLEEKLEKEDFTRGKLMSSLHLKRYYGRILHYLKAKEYSHCAWTIVRVEILRNFYFINRLTGYLRN
# B2: Human Interferon-β 1a-MOD-9010 (ligand)
# chain: B1 chain
# B3: MOD-9012 (IFNβ-ctpx2) (ligand)
# chain: MSYNLLGFLQRSSNFQCQKLLWQLNGRLEYCLKDRMNFDIPEEIKQLQQFQKEDAALTIYEMLQNIFAIFRQDSSSTGWNETIVENLLANVYHQINHLKTVLEEKLEKEDFTRGKLMSSLHLKRYYGRILHYLKAKEYSHCAWTIVRVEILRNFYFINRLTGYLRNSSSSKAPPPSLPSPSRLPGPSDTPILPQSSSSKAPPPSLPSPSRLPGPSDTPILPQ
# B4: MOD-9016 (ctp-IFNβ-ctp) (ligand)
# chain: SSSSKAPPPSLPSPSRLPGPSDTPILPQMSYNLLGFLQRSSNFQCQKLLWQLNGRLEYCLKDRMNFDIPEEIKQLQQFQKEDAALTIYEMLQNIFAIFRQDSSSTGWNETIVENLLANVYHQINHLKTVLEEKLEKEDFTRGKLMSSLHLKRYYGRILHYLKAKEYSHCAWTIVRVEILRNFYFINRLTGYLRNSSSSKAPPPSLPSPSRLPGPSDTPILPQ
# B5: MOD-9011 (IFNβ-ctp) (ligand)
# chain: MSYNLLGFLQRSSNFQCQKLLWQLNGRLEYCLKDRMNFDIPEEIKQLQQFQKEDAALTIYEMLQNIFAIFRQDSSSTGWNETIVENLLANVYHQINHLKTVLEEKLEKEDFTRGKLMSSLHLKRYYGRILHYLKAKEYSHCAWTIVRVEILRNFYFINRLTGYLRNSSSSKAPPPSLPSPSRLPGPSDTPILPQ
# Target: T1, human IFN receptor
# Assay: cell-based or functional assay
Binder,"IC50 pg/ml (anti-proliferation, Daudi cells)","Specific Activity IU/mg x 10^8, Anti-viral (viral cytopathic effect bioassay, A549 cells challenged with virus)","Specific Activity IU/mg x 10^8, Anti-proliferation (Daudi cells, 72 hours, viable cells)"
B1,318 pg/mL,–,–
B2,251 pg/mL,3.9e+08 IU/mg,–
B3,–,4e+08 IU/mg,–
B4,323 pg/mL,3.7e+08 IU/mg,1.97e+08 IU/mg
B5,264 pg/mL,4e+08 IU/mg,2.41e+08 IU/mg
